Key:
[1] = test system: baboon smooth muscle cells; assay: Wash-out study of PDGF-BB mitogenic activity on baboon smooth muscle cells; type: cell-based; settings: T = -24 hrs 0.5% DMSO; T = 0 hrs PDGF-BB (1 ng/ml); mean +/- SD; vehicle only 164 +/- 10
Description: NNC92-0270 was analyzed for prolonged inhibitory effect on PDGF-BB mitogenic activity on baboon smooth muscle cells in a wash-out experiment. Baboon SMCs were plated at 20,000 cells per well in a 24-well culture dish and grown for 2 days. The culture media was removed and replaced with Mito Media (Table 5) to allow the cells to become quiescent. The experiment was set up such that cells were treated with NNC92-0270 or vehicle control (0.5% DMSO) for either 24 hours prior to the addition of PDGF-BB, or sequentially with the addition of PDGF-BB. Those cells initially treated with NNC92-0270 or control vehicle for 24 hours, were washed with Mito Media to remove the test compound and then incubated with PDGF-BB (1 ng/ml) for an additional 24 hours. A second set of cells was treated with NNC92-0270 or vehicle control simultaneously with PDGF-BB for 24 hours. The cells were pulse labeled for 4 hours with [^3 H] thymidine (1 μCi/ml final) harvested with trypsin and counted in a Wallac Betaplate counter to determine CPM for [^3 H] thymidine incorporation.
Acetic acid (10 mM) was used as the PDGF-BB vehicle control and 0.5% DMSO was used as the test compound control.

[2] = test system: baboon smooth muscle cells; assay: Inhibition of PDGF-BB mitogenic activity on baboon smooth muscle cells ([3H] thymidine incorporation); type: cell-based; settings: vehicle 74
Description: NNC92-0270 was analyzed for the ability to inhibit the mitogenic activity of PDGF on baboon smooth muscle cells. All mitogenesis assays performed on baboon vascular smooth muscle cells (BVSMCs) were done on primary cultures of cells between passages 13 and 20 in culture. The initial cultures were established from outgrowth of aortic tissue explants. Baboon smooth muscle cells were plated at approximately 20,000 cells per well, in DMEM supplemented with 10% fetal calf serum, into 24-well culture dishes. One day prior to use the culture media was removed, and 1 ml of Mito Media (Table 5) was added to each well to allow the cells to become quiescent. At the time of the experiment the cells were stimulated with PDGF-BB. […] 20× stock solutions were made for each of the PDGF concentrations by dilution in 10 mM acetic acid containing 0.25% albumin, and 50 ul PDGF or dilution vehicle alone was added to the culture wells.
To analyze the activity of NNC92-0270 to neutralize PDGF-BB mitogenic activity, 1 ng/ml of PDGF was added to wells along with dilutions of NNC92-0270. The cells were incubated with the test samples for approximately 20 hours at 37 ° C. Fifty microliters of a 20× stock solution of [3H] Thymidine was then added to each well to give a final concentration of 1 μCi/ml. The cells were incubated for 4 hours at 37 ° C., washed with PBS, then harvested with trypsin and counted for [^3 H] thymidine incorporation in a Wallac (Turku, Finland) Betaplate™ liquid scintillation counter.
NNC92-0270 was incubated with 1 ng/ml of PDGF-BB in the presence of 0.5 U/ml of unfractionated heparin. The cells were pulse labeled with [^3 H] thymidine as described above and the level of [^3 H] thymidine determined.

B1: PDGF-BB: platelet derived growth factor BB, mitogenic stimulus used for the standard curve (protein, UniProt P01127 82-190, looked up)
Platelet-derived growth …: SLGSLTIAEPAMIAECKTRTEVFEISRRLIDRTNANFLVWPPCVEVQRCSGCCNNRNVQCRPTQVQLRPVQVRKIEIVRKKPIFKKATVTLEDHLACKCETVAAARPVT
modifications: homodimer
notes: platelet derived growth factor BB, mitogenic stimulus used for the standard curve
[3H] Thymidine Incorporation (cpm) [1]: 6370 +/- 1303 cpm | 3H Thymidine (CPM Incorporated), PDGF-BB standard curve ([2]; PDGF-BB 0.062 ng/ml): 120 CPM | 3H Thymidine (CPM Incorporated), PDGF-BB standard curve ([2]; PDGF-BB 0.125 ng/ml): 226 CPM | 3H Thymidine (CPM Incorporated), PDGF-BB standard curve ([2]; PDGF-BB 0.25 ng/ml): 392 CPM | 3H Thymidine (CPM Incorporated), PDGF-BB standard curve ([2]; PDGF-BB 0.5 ng/ml): 959 CPM | 3H Thymidine (CPM Incorporated), PDGF-BB standard curve ([2]; PDGF-BB 1 ng/ml): 1701 CPM
